Experimental data reported in patent US12397037B2, “Methods and compositions for immunomodulation” (CHILDREN'S MEDICAL CENTER CORPORATION, priority 2014, dated 2025).

Tested on: mTORC1 and mTORC2
Experiment: Immunoprecipitation of mTOR with raptor and rictor in U87MG cells
Assay type: cell-based, human
Conditions: SEMA3F 640 ng/ml, 30 minutes
Description: FIG. 29A depicts U87MG cells treated with SEMA3F (640 ng/ml) for 30 minutes and subjected to immunoprecipitation and Western blot analysis with anti-mTOR, -raptor and -rictor as illustrated. FIG. 29B depicts U87MG cells treated with rapamycin (10 nM) or Torin 1 (10 nM) for 30 minutes, prior to SEMA3F (640 ng/ml) treatment for 60 minutes; lysates were analyzed by Western blot. FIG. 29C depicts bar graphs representing densitometric analysis of the illustrated blot showing the fold change in intensity (mean±SD) relative to the untreated control (*, p <0.01; **, p<0.001 vs. untreated control). FIG. 29D depicts U87MG cells transiently transfected with a pcDNA3.1 empty vector or with constitutively active Akt (2DAkt). Cells were treated with SEMA3F (640 ng/ml) and lysates were analyzed by Western blot. All data are representative of 3 independent experiments.
FIGS. 35A-35B depict analysis of the effect of SEMA3F on mTORC2 activity. […] depicts a Western blot. U87MG cells were transiently transfected with a pcDNA3.1 empty vector or with constitutively active Akt (2DAkt). Cells were treated with SEMA3F (640 ng/ml) and lysates were analyzed by Western blot. FIG. 35B depicts a Western blot. U87MG cells were transiently transfected with a pcDNA3.1 empty vector or with 2DAkt. […]

B1: SEMA3F: Human recombinant full-length His-Myc-tagged SEMA3F, secreted by transfected 293T cells and purified; class 3 semaphorin, NRP-2 ligand (protein, listed as Homo sapiens)
chain: MLVAGLLLWASLLTGAWPSFPTQDHLPATPRVRLSFKELKATGTAHFFNFLLNTTDYRILLKDEDHDRMYVGSKDYVLSLDLHDINREPLIIHWAASPQRIEECVLSGKDVNGECGNFVRLIQPWNRTHLYVCGTGAYNPMCTYVNRGRRAQATPWTQTQAVRGRGSRATDGALRPMPTAPRQDYIFYLEPERLESGKGKCPYDPKLDTASALINEELYAGVYIDFMGTDAAIFRTLGKQTAMRTDQYNSRWLNDPSFIHAELIPDSAERNDDKLYFFFRERSAEAPQSPAVYARIGRICLNDDGGHCCLVNKWSTFLKARLVCSVPGEDGIETHFDELQDVFVQQTQDVRNPVIYAVFTSSGSVFRGSAVCVYSMADIRMVFNGPFAHKEGPNYQWMPFSGKMPYPRPGTCPGGTFTPSMKSTKDYPDEVINFMRSHPLMYQAVYPLQRRPLVVRTGAPYRLTTIAVDQVDAADGRYEVLFLGTDRGTVQKVIVLPKDDQELEELMLEEVEVFKDPAPVKTMTISSKRQQLYVASAVGVTHLSLHRCQAYGAACADCCLARDPYCAWDGQACSRYTASSKRRSRRQDVRHGNPIRQCRGFNSNANKNAVESVQYGVAGSAAFLECQPRSPQATVKWLFQRDPGDRRREIRAEDRFLRTEQGLLLRALQLSDRGLYSCTATENNFKHVVTRVQLHVLGRDAVHAALFPPLSMSAPPPPGAGPPTPPYQELAQLLAQPEVGLIHQYCQGYWRHVPPSPREAPGAPRSPEPQDQKKPRNRRHHPPDT
modifications: His-Myc tag
notes: Human recombinant full-length His-Myc-tagged SEMA3F, secreted by transfected 293T cells and purified; class 3 semaphorin, NRP-2 ligand
- association between mTOR and raptor / rictor: inhibited the association between mTOR and both raptor and rictor
- mTOR/rictor interaction in 2DAkt transfected cells: inhibited mTOR/rictor interaction
